Source: the domain aggregation screens of Martell et al. (2025)

Assay: soluble fraction after stress (log2 fold change); higher = more stays soluble; pooled small domains, quantitative proteomics
Conditions: stress: 75 degC
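Also: 20 min heating vs room temperature control held 20 min.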

Sequence | soluble fraction (log2)
HMAPPIQQQVESLMNSFAKIGVTVPMLESRLQHAMSAVTANELVMLRKIGASIRDGFATVAEQFPA | -1.14
HMAPPPPEGYIHRWIRESVMGFDDKKNLSARIREGFELVRAEEYPDYEAPTVMDGKHAGVIANGGLLLARF | -0.201
HMAPQQARAAKTRVKLLDAAATVVRRDGIQAMTLARVAEEAGVSKGGLLHHFGSKEELVTGMLEQ | -0.21
HMAPRASDALTERELDVLRVVADGASVAEAAEMLVVSRETVKKHLGNIYAKLGVHSKMQAVALLREEGV | -0.788
HMAPRKNIRLLRAAQDKAAAEGDHETVDAIRGQIAALIETLPVQYREEYLLQEKGRENGLKLAIENAAK | 0.663
HMAPSLQISLKQAIITAQQQHPGSKALNADFDGARGTPRYVIETLLPTGELRELTIDAQSGQVMEDHPDR | 0.234
HMAPSPEGAAILRESVESVARDQVDRVALTMTARGYTTAEIAAALMVDRSTISRRLYAMRDRYHAQQDNAQ | -0.526
HMAPSVNEVAWAQKIIDAHAEAAAAGKGLVVVDGKLIENLHVEEAKQLLSLSDAIAKNDASNG | 0.0645
HMAPTGTDRQTPHTRDELYLVLSGTGTFVNGDARHPFGPGDALFVPAGAEHRFEDFSDDFRTWVVFYGAEG | -0.163
HMAPVVAILTRQLPLPQAQQLAGQTALVRVVKGGPGNEAELEFAGQNIQVKLPPGRQLTAGEMVTVAFALS | -0.762
HMAQASEPMLALIRLKWWEEQINSPVKGDSLPLLSQLNSHISAGYLSRSQVTSLIQRWQDYA | -0.983
HMAQFNELLFELRQDRKMTQEDLAKVLFVTSGTISNYENGVHLPDIEKLISLADFFGVTTDYLLG | -0.189
HMAQLKYEQIKSYLQAEAVKPESATRMPTVRELMRRFNVSLVTVNRALSELEHAKVIVRRQGAGIVAAQ | -0.662
HMAQLPADMSRVKSADVSDAQLREFVQKAQASGQTETQLFREFSRRGMPTNEINILRSRMVGLQNN | 0.152
HMAQLPPTATARATSDVSGLTASAALRTLLEQGFVPQIHGSGKVSRQHPPAGTLLEPGSTIQLFLEPS | 0.261
HMAQLSDMLTYLRKRKGLSQQELANTLKISRSAIGMYETGKREPDLETLEVFADFYNVDMNTLTGKA | -0.245
HMAQNILPGQKNAIKSLATSAGFSQQELDSYLSQNYGKTLNNLSQKEGASLISGLQDGSIKKP | 0.988
HMAQPIPSGSDIREAREAAGMNLRDFARMVGGGAIGTWSHYETGKPIRVKSISPEVWQRVRDFILQHGK | -0.676
HMAQRAADEARTHEILGLLRQARAALDHGGTARAARLRASIAEKLPAAPALPAWFARQLEQVDSQLAELQD | -0.768

Sequence | soluble fraction (log2)
HMAQRFDLGDKLNPQSSEFEYLGTSSRTGVSTYRYKNVPTQLFFGRQIGDIVVGVRRGMITLTIYNL | 0.0868
HMAQSTALVNLAQAEINKRGLTQTEVQARLSEEGINVNSISPAEYPKYQKQILSILDQMQKEKQLSKEV | 0.287
HMAQVDAVQQVLQAFPALRSGQSQHLSQVVAALRQRGILTVGTKTTAWFAQWASVFQLLPLQVPNRIRYQS | 0.0672
HMARGRETILLVEDEPAVRGLVHATLRLHGYTVLEARHGIEALLTSTKFVGPIHLLLTDVVMPQMS | 0.0984
HMARHIHFEVHVQQAGRWSIHAQFGAGQREKAIEEAKKIEKTPGFDSVKVVKETYDSDLGNHQDTTIYRGP | -1.18
HMARKTIFHSLLGELEQRIGRLPAGTILPAEQALADEYGVSKPTLRRALAELAEHGLITKENGIGSVVI | -0.577
HMARLAGVDLPREKRIEIGLTYIYGIGLARSQEILKKAGINPDIRVKDLTDEQEQAIRNAMDGYIVEGDL | -1
HMARLQEVVVRVPVEDGQTLAAIYREAEVIERADEGTGVLLTVRIPAPLLGRLRRLEGVHVQP | -1.07
HMARRLELEDIPVDEVLFTASRNLVDAIEVMDPSRQAPMIQPWLKQALEWAVGALGFSKEDAVATLTSD | 0.157
HMASAAHYEGVKTEGESDNDVITRVLTATGVTAEKDDIFVVKSLIADGKYSYTAYVYDGSVWAAMD | -0.236
HMASALDVALNDFAEMRKKMRKPLTDRALALTLSELEKLAPGNDEKKIAILNQSIQRGWQGVFPLK | -0.336
HMASDEVPGAGFKWREDVLLRVMEANGIDKSNRDDFVRHAVNFDDDDNNYLKKAEIEAAAAAWVESQSPA | -0.696
HMASDLPTVTIMGKTFYTYVAKKGESFFGIANRFGWDPELLVKTNRELETPLDKGALIYYPVPKKPK | -1.32
HMASIATLTVKALGGASDVVIRDKDGRIIWADRLPAGQSHRVFGHAPFNVAASHASRVQLSLLGKDVGRV | -1.37
HMASISDRIRLLRAESHMTQEEFGRIFGISKPTVSFYEHGKSVPNDQIKTAIARYFGVSVDYLLGVTD | -2.14
HMASKTGTITATSLNVRSGAATTYSILGTLSNGKTVTIYEESNGWYKINYNGGYGWVSKTYVSTG | -1.53
HMASLASVAYETLRQALDNFQYVPGDRFSESEVGQQLGMSRTPVREALVRLQREGYISVLPKMGWVVNQ | -1.86
HMASMHDGVAARLRAMVFERELAPGEFIDERRLAQQWQISRTPLREALKVLAAEGLVELVPRRGARVV | -1.12
HMASPKEALWRSLAEEPDTWWDNRERKSQPGANPRSPDFKHKESGEALWIESRDTPTWVLETL | -0.196
